In patent US9540654B2, “Synthetic brassica-derived chloroplast transit peptides” (Dow AgroSciences LLC, priority 2012, dated 2017):

Columns and labels:
rice = experiment: Postemergence glyphosate tolerance of dgt-28 rice (T0, T1); format: in vivo, Oryza sativa; conditions: following 560 g ae/ha glyphosate used for selection
Procedure: Transplanted rice transformants produced via Agrobacterium transformation were transplanted into media and acclimated to greenhouse conditions. […] Selected T0 events from construct pDAB110828 were treated with 2240 g ae/ha DURANGO DMA™ as previously described and assessed 7 and 14 days after treatment. […] All PCR positive plants were allowed to produce T1 seed for further characterization.
(§1) T1 resistant plants from each event used in the progeny testing were given unique identifiers and sampled for zygosity analyses of the dgt-28 gene. Zygosity data were used to assign 2 hemizygous and 2 homozygous replicates to each rate of glyphosate applied allowing for a total of 4 replicates per treatment. These plants were compared against wildtype kitaake rice. All plants were sprayed with a track sprayer set at 187 L/ha. The plants were sprayed from a range of 560-2240 g ae/ha DURANGO DMA™. All applications were formulated in water with the addition of 2% w/v ammonium sulfate (AMS). Plants were evaluated at 7 and 14 days after treatment. Plants were assigned an injury rating with respect to overall visual stunting, chlorosis, and necrosis. The T1 generation is segregating, so some variable response is expected due to difference in zygosity.

[1] = test system: tobacco (cv. Petit Havana); experiment: Postemergence glyphosate tolerance of dgt-28 tobacco (T1, T2); format: in vivo; conditions: tobacco through two generations
Excerpt: as §1, with “Petite havana tobacco.” for “kitaake rice.”, “560-4480” for “560-2240”
Rates of DURANGO DMA™ ranging from 420-3360 g ae/ha glyphosate were applied to 2-3 leaf tobacco as previously described.

Zea mays B104 = experiment: Post-emergence glyphosate tolerance of dgt-28 T0 corn (greenhouse); format: in vivo; conditions: T0 dgt-28 corn plants
Procedure: Zea mays dgt-28 transformation events (T0) were allowed to acclimate in the greenhouse and were grown until plants had transitioned from tissue culture to greenhouse growing conditions (i.e., 2-4 new, normal looking leaves had emerged from the whorl). Plants were grown at 27° C. under 16 hour light:8 hour dark conditions in the greenhouse. The plants were then treated with commercial formulations of DURANGO DMA™ (containing the herbicide glyphosate) with the addition of 2% w/v ammonium-sulfate. Herbicide applications were made with a track sprayer at a spray volume of 187 L/ha, 50-cm spray height. T0 plants were sprayed with a range of glyphosate from 280-4480 g ae/ha glyphosate, which is capable of significant injury to untransformed corn lines. A lethal dose is defined as the rate that causes >95% injury to the B104 inbred.
T0 events of dgt-28 linked with TraP4, TraP5, TraP8 and TraP23 were generated by Agrobacterium transformation and were allowed to acclimate under controlled growth chamber conditions until 2-4 new, normal looking leaves had emerged from the whorl. Plants were assigned individual identification numbers and sampled for copy number analyses of both dgt-28 and aad-1. Based on copy number analyses, plants were selected for protein expression analyses. Plants were transplanted into larger pots with new growing media and grown at 27° C. under 16 hour light:8 hour dark conditions in the greenhouse. Remaining plants that were not sampled for protein expression were then treated with commercial formulations of DURANGO DMA™ (glyphosate) with the addition of 2% w/v ammonium-sulfate. Treatments were distributed so that each grouping of plants contained T0 events of varying copy number. Herbicide applications were made with a track sprayer at a spray volume of 187 L/ha, 50-cm spray height. T0 plants were sprayed with a range of glyphosate from 280-4480 g ae/ha glyphosate capable of significant injury to untransformed corn lines. A lethal dose is defined as the rate that causes >95% injury to the B104 inbred. B104 was the genetic background of the transformants.

[2] = test system: Zea mays hybrid 4XP811/B104; experiment: Glyphosate tolerance of dgt-28 corn under field conditions; format: in vivo; conditions: corn under field conditions through the reproductive growth stages
Excerpt: Single copy T1 events were sent to a field location to create both hybrid hemizygous and inbred homozygous seed for additional characterization. Hybrid seeds were created by crossing T1 events in the maize transformation line B104 to the inbred line 4XP811 generating hybrid populations segregating 1:1 (hemizygous:null) for the event. The resulting seeds were shipped to 2 separate locations. A total of five single copy events per construct were planted at each location in a randomized complete block design in triplicate. The fields were designed for glyphosate applications to occur at the V4 growth stage and a separate grouping of plants to be applied at the V8 growth stage. The 4XP811/B104 conventional hybrid was used as a negative control.
Experimental rows were treated with 184 g ae/ha ASSURE II™ (106 g ai/L quizalofop-methyl) to eliminate null segregants. All experimental entries segregated 1:1 (sensitive:resistant) (p=0.05) with respect to the ASSURE II™ application. Selected resistant plants were sampled from each event for quantification of the DGT-28 protein by standard ELISA.
Quizalofop-methyl resistant plants were treated with the commercial herbicide DURANGO DMA™ (480 g ae/L glyphosate) with the addition of 2.5% w/v ammonium-sulfate at either the V4 or V8 growth stages. […]

Arabidopsis = experiment: dgt-28 as a selectable marker with glyphosate selection; format: in vivo, Arabidopsis thaliana; conditions: 26.25-1680 g ae/ha glyphosate applied 7 and 11 DAP
Procedure: The use of dgt-28 as a selectable marker for glyphosate selection agent is tested with the Arabidopsis transformed plants described above. Approximately 50 T4 generation Arabidopsis seed (homozygous for dgt-28) are spiked into approximately 5,000 wildtype (sensitive to glyphosate) seed. The seeds are germinated and plantlets are sprayed with a selecting dose of glyphosate. Several treatments of glyphosate are compared; each tray of plants receives either one or two application timings of glyphosate in one of the following treatment schemes: 7 DAP (days after planting), 11 DAP, or 7 followed by 11 DAP. Since all plants also contain a glufosinate resistance gene in the same transformation vector, dgt-28 containing plants selected with glyphosate can be directly compared to DSM-2 or pat containing plants selected with glufosinate.
Glyphosate treatments are applied with a DeVilbiss™ spray tip as previously described. Transgenic plants containing dgt-28 are identified as “resistant” or “sensitive” 17 DAP. […] Sensitive and resistant plants are counted and the number of glyphosate tolerant plants is found to correlate with the original number of transgenic seed containing the dgt-28 transgene which are planted.

B1: DGT-28: EPSP synthase (GENBANK ZP_06917240.1) from Streptomyces sviceus ATCC29083; glyphosate tolerance gene and protein (protein)
chain: MRGMPALSLPGSKSITARALFLAAAADGVTTLVRPLRSDDTEGFAEGLVRLGYRVGRTPDTWQVDGRPQGPAVAEADVYCRDGATTARFLPTLAAAGHGTYRFDASPQMRRRPLLPLSRALRDLGVDLRHEEAEGHHPLTVRAAGVEGGEVTLDAGQSSQYLTALLLLGPLTRQGLRIRVTDLVSAPYVEITLAMMRAFGVEVAREGDVFVVPPGGYRATTYAIEPDASTASYFFAAAALTPGAEVTVPGLGTGALQGDLGFVDVLRRMGAEVSVGADATTVRGTGELRGLTANMRDISDTMPTLAAIAPFASAPVRIEDVANTRVKECDRLEACAENLRRLGVRVATGPDWIEIHPGPATGAQVTSYGDHRIVMSFAVTGLRVPGISFDDPGCVRKTFPGFHEAFAELRRGIGS
glyphosate rate up to which tolerance was shown (rice): up to 2240 g ae/ha | glyphosate rate up to which robust tolerance was shown [1]: up to 3360 g ae/ha | glyphosate rate up to which tolerance was achieved (Zea mays B104): up to 4480 g ae/ha | glyphosate rate up to which robust tolerance was shown [2]: up to 4480 g ae/ha | selection for transgenic Arabidopsis plants with glyphosate (Arabidopsis): effective selection
